The text below walks through data of PMC8081927.

This experiment addresses Aβ1-42 fibrils (UniProt P05067). Description: flow cytometry on beads; Aβ fibrils (1% biotinylated, 1 μM) immobilised on streptavidin Dynabeads, blocked with 10% milk; antibody dilutions in PBSB with 1% milk, 3 h, 25 °C; detected with goat anti-human Fc AF647; apparent affinity (EC50).

B1: crenezumab (variable domains grafted onto an IgG1 scaffold with a human Fc fragment) (antibody, V domains shown)
VH: EVQLVESGGGLVQPGGSLRLSCAASGFTFSSYGMSWVRQAPGKGLELVASINSNGGSTYYPDSVKGRFTISRDNAKNSLYLQMNSLRAEDTAVYYCASGDYWGQGTTVTVSS
VL: DIVMTQSPLSLPVTPGEPASISCRSSQSLVYSNGDTYLHWYLQKPGQSPQLLIYKVSNRFSGVPDRFSGSGSGTDFTLKISRVEAEDVGVYYCSQSTHVPWTFGQGTKVEIK
Regarding B1, the EC50 came out at 9 nM.

For orientation: EC50 means the concentration that produces a half-maximal response.
